# Laboratory results reported in paper PMC4604023.
# Read-outs that look alike come from different tables or passages of the source.
# B1: AS4 (AS-4) (structured_RNA)
# RNA: GGGGCGCGUUCUAAACAACGAUUGCCGACAAGACGAUUUCUGGGUCAAACUUUAUUCG
# B2: AS2 (AS-2) (structured_RNA)
# RNA: GGAGUAUCUGUCGGCAUCACGCUUGGAUGUGCAAGGCUCUUUAUCUCUAUUAUGCAAG
# B3: AS1 (AS-1) (structured_RNA)
# RNA: GGUCGACAGGCUAGGCCGUCUAAAGCUGAUUGCUCCCGGGGAAUAAUUAUUGACAGCU
# B4: MBE87 (structured_RNA)
# RNA: GGCAUUACGGCCGGGAGCCAGUAUUACUGAUUGAUGAUUCUGUGGGCGUCUUCUAG
# Legend:
# [1] = biological target: nucleocapsid protein N (Rift Valley fever virus, UniProt P21700 1-245); test: filter binding
# Target sequence in this assay (P21700 whole entry): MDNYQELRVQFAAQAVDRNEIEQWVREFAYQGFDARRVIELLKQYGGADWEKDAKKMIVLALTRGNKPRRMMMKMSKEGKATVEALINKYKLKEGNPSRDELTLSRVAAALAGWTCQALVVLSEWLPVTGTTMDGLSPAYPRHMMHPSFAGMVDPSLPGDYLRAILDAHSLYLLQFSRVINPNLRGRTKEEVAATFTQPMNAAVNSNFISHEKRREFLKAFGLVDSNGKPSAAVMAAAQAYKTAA
# [2] = biological target: nucleocapsid protein N (Rift Valley fever virus, UniProt P21700 1-245); test: filter binding; remark: listed apart in the source
# Target sequence in this assay (P21700 whole entry): as above
Binder,binding result [1],binding result [2]
B1,binds,–
B2,binds,–
B3,binds,–
B4,–,binds
